{
  "source": "paper PMC2267159",
  "about": "(BMC Biology, 2008)",
  "molecular_target": "the molecule itself",
  "test": "SDS-PAGE",
  "data": [
    {"protein": "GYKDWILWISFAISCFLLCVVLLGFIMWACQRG", "note": "[TMD peptide of HA2 (strain X:31) of influenza virus, unlabeled]", "values": [
      {"measurement": "binding result", "result": "binds"}
    ]}
  ]
}
